Source: patent publication US20200079833A1 (AstraZeneca / MedImmune, published 2020)
Starred links: 1 amine or outer side, 2 acyl side, 3 side chain; linkers in the order of their positions; H or OH if unused. Non-standard residues stand in square brackets, D forms with d. Groups on a side chain read outwards from the residue. Primed or numbered codes have the meaning given here. No end group written: not given here. *: point of attachment. γGlu = O=C(O)[C@H](CCC(=O)[*:2])N[*:1]; Palmitoyl = CCCCCCCCCCCCCCCC(=O)*; αMeF = C[C@](N)(Cc1ccccc1)C(=O)O; αMeK = C[C@](N)(CCCCN)C(=O)O; Lauroyl = CCCCCCCCCCCC(=O)*; αMeS = C[C@](N)(CO)C(=O)O; PEG2′ = not defined here; Aib = CC(C)(N)C(=O)O

Target: GLP-1 receptor (GLP-1R), primary cAMP assay (human, UniProt P43220 24-463)
Test: cell-based or functional assay

Primary assay EC50 (cAMP) Mean [nM]	Primary assay EC50 (cAMP), n1 [nM]	Primary assay EC50 (cAMP), n2 [nM]	Binder
0.0217	0.0165	0.0268	H[Aib]EGTFTSDVSK([PEG2′-PEG2′-γGlu-Lauroyl])YLEGEAAEEFIK([PEG2′-PEG2′-γGlu-Lauroyl])WVVEGG-NH2 [SEQ ID NO: 236]
0.0209	0.0195	0.0223	H[Aib]EGTFTSDVSK([PEG2′-PEG2′-γGlu-Lauroyl])FLEGEAAEEFIK([PEG2′-PEG2′-γGlu-Lauroyl])WVVEGG-NH2 [SEQ ID NO: 237]
0.011	0.00875	0.0132	H[Aib]EGTFTSDVSK([PEG2′-PEG2′-γGlu-Lauroyl])YLEGEAAEEFIK([PEG2′-PEG2′-γGlu-Lauroyl])FVVEGG-NH2 [SEQ ID NO: 238]
0.0074	0.0063	0.00845	H[Aib]EGTFTSDVSK([PEG2′-PEG2′-γGlu-Lauroyl])FLEGEAAEEFIK([PEG2′-PEG2′-γGlu-Lauroyl])FVVEGG-NH2 [SEQ ID NO: 239]
0.821	0.891	0.75	H[Aib]EGS[αMeF]TSDV[αMeS]SYK([PEG2′-PEG2′-γGlu-Palmitoyl])EGEAA[αMeK]EFIK([PEG2′-PEG2′-γGlu-Palmitoyl])WVVEGG-NH2 [SEQ ID NO: 271]
0.335	0.339	0.331	H[Aib]EGS[αMeF]TSDV[αMeS]SYK([PEG2′-PEG2′-γGlu-Palmitoyl])EGEAA[αMeK]EFIAK([PEG2′-PEG2′-γGlu-Palmitoyl])VVEGG-NH2 [SEQ ID NO: 272]
0.762	0.741	0.783	H[Aib]EGS[αMeF]TSDV[αMeS]SYK([PEG2′-PEG2′-γGlu-Palmitoyl])EGEAA[αMeK]EFIAWK([PEG2′-PEG2′-γGlu-Palmitoyl])VEGG-NH2 [SEQ ID NO: 273]

Target: T1, glucose-dependent insulinotropic peptide (gastric inhibitory polypeptide) receptor (GIPR), primary cAMP assay (human, UniProt P48546 22-466)
T1 sequence (looked up): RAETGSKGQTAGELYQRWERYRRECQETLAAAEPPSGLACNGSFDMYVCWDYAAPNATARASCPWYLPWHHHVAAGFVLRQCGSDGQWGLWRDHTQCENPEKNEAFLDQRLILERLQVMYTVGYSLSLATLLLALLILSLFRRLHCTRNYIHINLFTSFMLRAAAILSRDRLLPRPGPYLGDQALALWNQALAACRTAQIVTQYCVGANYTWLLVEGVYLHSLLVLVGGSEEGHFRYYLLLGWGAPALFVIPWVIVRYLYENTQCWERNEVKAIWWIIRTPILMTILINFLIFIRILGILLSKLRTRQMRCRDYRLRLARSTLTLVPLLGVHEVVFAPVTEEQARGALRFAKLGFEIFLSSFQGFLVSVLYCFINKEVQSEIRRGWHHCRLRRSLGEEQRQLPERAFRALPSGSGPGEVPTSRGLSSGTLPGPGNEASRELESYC
Test: cell-based or functional assay

Primary assay EC50 (cAMP), n1 [nM]	Primary assay EC50 (cAMP), n2 [nM]	Binder
22.2	22.2	H[Aib]EGTFTSDVSK([PEG2′-PEG2′-γGlu-Lauroyl])YLEGEAAEEFIK([PEG2′-PEG2′-γGlu-Lauroyl])WVVEGG-NH2 [SEQ ID NO: 236]
22.3	22.3	H[Aib]EGTFTSDVSK([PEG2′-PEG2′-γGlu-Lauroyl])FLEGEAAEEFIK([PEG2′-PEG2′-γGlu-Lauroyl])WVVEGG-NH2 [SEQ ID NO: 237]
22.4	22.4	H[Aib]EGTFTSDVSK([PEG2′-PEG2′-γGlu-Lauroyl])YLEGEAAEEFIK([PEG2′-PEG2′-γGlu-Lauroyl])FVVEGG-NH2 [SEQ ID NO: 238]
22.5	22.5	H[Aib]EGTFTSDVSK([PEG2′-PEG2′-γGlu-Lauroyl])FLEGEAAEEFIK([PEG2′-PEG2′-γGlu-Lauroyl])FVVEGG-NH2 [SEQ ID NO: 239]
21.4	21.4	H[Aib]EGS[αMeF]TSDV[αMeS]SYK([PEG2′-PEG2′-γGlu-Palmitoyl])EGEAA[αMeK]EFIK([PEG2′-PEG2′-γGlu-Palmitoyl])WVVEGG-NH2 [SEQ ID NO: 271]
21.9	21.9	H[Aib]EGS[αMeF]TSDV[αMeS]SYK([PEG2′-PEG2′-γGlu-Palmitoyl])EGEAA[αMeK]EFIAK([PEG2′-PEG2′-γGlu-Palmitoyl])VVEGG-NH2 [SEQ ID NO: 272]
21.5	21.5	H[Aib]EGS[αMeF]TSDV[αMeS]SYK([PEG2′-PEG2′-γGlu-Palmitoyl])EGEAA[αMeK]EFIAWK([PEG2′-PEG2′-γGlu-Palmitoyl])VEGG-NH2 [SEQ ID NO: 273]

Target: glucagon receptor (GCGR), primary cAMP assay (human, UniProt P47871 26-477)
Sequence (P47871 26-477): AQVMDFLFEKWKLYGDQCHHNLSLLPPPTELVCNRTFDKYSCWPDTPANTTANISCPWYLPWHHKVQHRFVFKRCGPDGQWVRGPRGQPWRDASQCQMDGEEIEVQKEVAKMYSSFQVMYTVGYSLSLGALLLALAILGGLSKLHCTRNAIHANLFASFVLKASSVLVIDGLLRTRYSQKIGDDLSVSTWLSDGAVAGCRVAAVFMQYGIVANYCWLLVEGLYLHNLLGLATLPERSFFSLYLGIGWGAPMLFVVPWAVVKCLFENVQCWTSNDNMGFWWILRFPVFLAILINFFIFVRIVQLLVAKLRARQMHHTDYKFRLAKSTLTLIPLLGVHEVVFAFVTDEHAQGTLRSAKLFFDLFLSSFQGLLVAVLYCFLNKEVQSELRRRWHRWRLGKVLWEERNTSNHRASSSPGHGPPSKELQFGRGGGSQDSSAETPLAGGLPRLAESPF
Test: cell-based or functional assay

Primary assay EC50 (cAMP), n1 [nM]	Primary assay EC50 (cAMP), n2 [nM]	Binder
22.2	22.2	H[Aib]EGTFTSDVSK([PEG2′-PEG2′-γGlu-Lauroyl])YLEGEAAEEFIK([PEG2′-PEG2′-γGlu-Lauroyl])WVVEGG-NH2 [SEQ ID NO: 236]
22.3	22.3	H[Aib]EGTFTSDVSK([PEG2′-PEG2′-γGlu-Lauroyl])FLEGEAAEEFIK([PEG2′-PEG2′-γGlu-Lauroyl])WVVEGG-NH2 [SEQ ID NO: 237]
22.4	22.4	H[Aib]EGTFTSDVSK([PEG2′-PEG2′-γGlu-Lauroyl])YLEGEAAEEFIK([PEG2′-PEG2′-γGlu-Lauroyl])FVVEGG-NH2 [SEQ ID NO: 238]
22.5	22.5	H[Aib]EGTFTSDVSK([PEG2′-PEG2′-γGlu-Lauroyl])FLEGEAAEEFIK([PEG2′-PEG2′-γGlu-Lauroyl])FVVEGG-NH2 [SEQ ID NO: 239]
21.4	21.4	H[Aib]EGS[αMeF]TSDV[αMeS]SYK([PEG2′-PEG2′-γGlu-Palmitoyl])EGEAA[αMeK]EFIK([PEG2′-PEG2′-γGlu-Palmitoyl])WVVEGG-NH2 [SEQ ID NO: 271]
21.9	21.9	H[Aib]EGS[αMeF]TSDV[αMeS]SYK([PEG2′-PEG2′-γGlu-Palmitoyl])EGEAA[αMeK]EFIAK([PEG2′-PEG2′-γGlu-Palmitoyl])VVEGG-NH2 [SEQ ID NO: 272]
21.5	21.5	H[Aib]EGS[αMeF]TSDV[αMeS]SYK([PEG2′-PEG2′-γGlu-Palmitoyl])EGEAA[αMeK]EFIAWK([PEG2′-PEG2′-γGlu-Palmitoyl])VEGG-NH2 [SEQ ID NO: 273]

Target: T2, GLP-1R in the INS1e assay (UniProt P32301 22-463, limits assumed)
T2 sequence (looked up): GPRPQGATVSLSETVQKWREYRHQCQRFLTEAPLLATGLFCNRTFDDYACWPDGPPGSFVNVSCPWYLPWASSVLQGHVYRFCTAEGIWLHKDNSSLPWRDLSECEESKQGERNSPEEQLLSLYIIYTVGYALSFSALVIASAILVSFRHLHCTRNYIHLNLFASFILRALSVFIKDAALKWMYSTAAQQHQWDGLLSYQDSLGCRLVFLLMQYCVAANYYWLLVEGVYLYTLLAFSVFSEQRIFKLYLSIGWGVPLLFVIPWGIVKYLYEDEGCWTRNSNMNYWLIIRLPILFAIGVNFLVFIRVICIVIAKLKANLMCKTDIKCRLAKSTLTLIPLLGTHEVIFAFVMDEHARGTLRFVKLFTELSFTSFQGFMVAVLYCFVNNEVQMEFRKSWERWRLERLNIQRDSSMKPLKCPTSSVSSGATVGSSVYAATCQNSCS
Test: cell-based or functional assay

INS1e assay EC50 (cAMP) Mean [nM]	INS1e assay EC50 (cAMP) n1 [nM]	INS1e assay EC50 (cAMP) n2 [nM]	Binder
12.3	12	12.7	H[Aib]EGTFTSDVSK([PEG2′-PEG2′-γGlu-Lauroyl])YLEGEAAEEFIK([PEG2′-PEG2′-γGlu-Lauroyl])WVVEGG-NH2 [SEQ ID NO: 236]
19.3	14.3	24.3	H[Aib]EGTFTSDVSK([PEG2′-PEG2′-γGlu-Lauroyl])FLEGEAAEEFIK([PEG2′-PEG2′-γGlu-Lauroyl])WVVEGG-NH2 [SEQ ID NO: 237]
13.7	15	12.4	H[Aib]EGTFTSDVSK([PEG2′-PEG2′-γGlu-Lauroyl])YLEGEAAEEFIK([PEG2′-PEG2′-γGlu-Lauroyl])FVVEGG-NH2 [SEQ ID NO: 238]
13	14.7	11.2	H[Aib]EGTFTSDVSK([PEG2′-PEG2′-γGlu-Lauroyl])FLEGEAAEEFIK([PEG2′-PEG2′-γGlu-Lauroyl])FVVEGG-NH2 [SEQ ID NO: 239]
